Test results published in patent US20050042209A1, “MUC1 extracellular domain and cancer treatment compositions and methods derived therefrom” (priority 2000, published 2005).

Tested on: HCT116 cells
Test: Apoptosis (sub-G1 DNA, TUNEL) in HCT116 transfectants
Assay type: cell-based, human
Settings: FIG. 19
Description: Methods. Apoptotic cells were quantified by analysis of sub-G1 DNA and TUNEL staining. To assess sub-G1 DNA content, cells were harvested, washed with PBS, fixed with 80% ethanol, and incubated in PBS containing 20 ng/ml RNase (Roche) for 60 min at 37° C. Cells were then stained with […] propidium iodide (Sigma) for 30 min at room temperature in the dark. DNA content was analyzed by flow cytometry (EPICS XL-MCL, Coulter Corp.). Apoptotic cells with DNA fragmentation were detected by staining with the In Situ cell death detection kit (TUNEL; Roche Applied Science) and visualized by confocal microscopy (ZEISS LSM510). After staining, cells were analyzed by flow cytometry. Other experimental procedures and methods were as described in Example 15.
Results. To determine if MUC1 affects the induction of apoptosis by CDDP, cells were analyzed for sub-G1 DNA content. […] Stimulation of cell surface death receptors with TNF-α or the TNF-related apoptosis inducing factor TRAIL is associated with activation of the extrinsic apoptotic pathway. To determine if MUC1 affects death receptor-induced apoptosis, HCT116 cells were treated with TNF-α.

B1: TRAIL: TNF-related apoptosis inducing factor TRAIL, rhTRAIL (Calbiochem-Novabiochem) (protein, UniProt P50591 1-281, looked up)
Tumor necrosis factor ligand …: MAMMEVQGGPSLGQTCVLIVIFTVLLQSLCVAVTYVYFTNELKQMQDKYSKSGIACFLKEDDSYWDPNDEESMNSPCWQVKWQLRQLVRKMILRTSEETISTVQEKQQNISPLVRERGPQRVAAHITGTRGRSNTLSSPNSKNEKALGRKINSWESSRSGHSFLSNLHLRNGELVIHEKGFYYIYSQTYFRFQEEIKENTKNDKQMVQYIYKYTSYPDPILLMKSARNSCWSKDAEYGLYSIYQGGIFELKENDRIFVSVTNEHLIDMDHEASFFGAFLVG
TRAIL-induced apoptosis, effect of MUC1 (HCT116/MUC1 cells): attenuated this response | apoptosis (HCT116/vector cells, 100 ng/ml TRAIL without CHX): effective in inducing apoptosis
